Laboratory results taken from the supplement of paper PMC11865577.

Tests used:
Experiment in all cases: pull-down binding Z-score (relative to library population); higher = stronger binding
[1] = tested on: TO-N3 (biotin conjugate); conditions: RNA library: Library-2
Summary of the method: (§1)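 Biotin-conjugated small molecule (100 pmol) on streptavidin beads was incubated with 1 μg of heat-folded Cy5- or Cy3-end-labelled RNA library in phosphate/NaCl/KCl buffer at 25 °C for 60 min. Following three washes, RNA was eluted with hot SDS and hybridised at 55.5 °C for 20 h to a DNA barcode microarray. The binding value is a Z-score computed from the library mean and standard deviation, after subtraction of beads without compound and averaging of barcoded replicate probes with the highest and lowest excluded.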

[2] = tested on: G-clamp-N3 (biotin conjugate); conditions: RNA library: Library-1 (pre-miRNA loops + repeats)
Summary of the method: as §1

[3] = tested on: TO-N3-2 (biotin conjugate); conditions: RNA library: Library-2
Summary of the method: as §1

[4] = tested on: TO-3-N3-2 (biotin conjugate); conditions: RNA library: Library-2
Summary of the method: as §1

[5] = tested on: TO-3-N3 (biotin conjugate); conditions: RNA library: Library-2
Summary of the method: as §1

Sequence	pull-down binding Z-score [1]	pull-down binding Z-score [2]	pull-down binding Z-score [3]	pull-down binding Z-score [4]	pull-down binding Z-score [5]
GGCCCCAGGAAGAAGGGCCUGGUGGAGCC [hsa-mir-6743]	0.577	2.82	1.51	0.267	0.235
GGCCGGUCAGGCA [hsa-mir-4689]	0.576	1.09	0.682	-0.106	0.391
GGCCGUUUGAGAUGUCC [hsa-mir-3674]	-0.259	-0.962	0.0919	-0.132	-0.181
GGCCUGGGAUUCCUGCCUUCUAGGUC [hsa-mir-8078]	0.707	-0.278	0.307	-0.0252	0.742
GGCGACUGGUGUCUAAUUUGUUUGUC [hsa-mir-4429]	-0.37	0.682	-0.308	-0.265	-0.313
GGCGCACAGCAGACCCUGCAAUCAUGCC [hsa-mir-3164]	1.03	0.000458	0.621	0.119	0.966
GGCGCGCGAGGCUCCAGGCUCC [hsa-mir-3197]	0.81	2.56	1.92	0.248	0.322
GGCGCUGGGACCCCACUAGGGUGGCGCC [hsa-mir-4488]	1.25	1.6	0.687	0.254	1.33
GGCGCUGUCUUGAGACAUUCGCGCAGUGCA [hsa-mir-3177]	0.646	-0.296	2.23	-0.209	-0.111
GGCGCUUCUCCUUCUGAACAGAGCGCU [hsa-mir-1251]	-0.423	-0.609	-0.171	-0.182	-0.462
GGCGGAGGCAGGCGUGACCGUUUGCC [hsa-mir-4632]	1.11	1.09	1.56	0.38	0.432
GGCGGCUCGGAGUACCUCUGCCGCC [hsa-mir-6869]	0.666	0.238	-0.0185	-0.0436	0.86
GGCGGGCGGCGGUGCCCGUC [hsa-mir-4449]	1.53	1.71	0.91	0.0801	0.739
GGCGGUGAAGCUCC [hsa-mir-4532]	-0.104	0.399	0.727	-0.285	-0.22
GGCGUGGACAACUUGCU [hsa-mir-3943]	0.131	0.951	0.912	-0.0337	-0.271
GGCUCCUGGCGCUGAUGCC [hsa-mir-6886]	1.15	-0.347	1.15	0.297	0.85
GGCUCGUCUGUGUUGCCAAUCGACUC [hsa-mir-1307]	0.973	-0.468	0.866	0.232	0.723
GGCUCUGGGUCCUGCUCCUUAGAGCA [hsa-mir-2467]	0.575	0.344	0.837	-0.0911	0.259
GGCUGCAGGCCCGGCCCCUCUC [hsa-mir-6787]	1.1	0.112	1.59	0.126	0.378

Sequence	pull-down binding Z-score [1]	pull-down binding Z-score [2]	pull-down binding Z-score [3]	pull-down binding Z-score [4]	pull-down binding Z-score [5]
GGCUGCGUGCCACCCGGGCAGCU [hsa-mir-3194]	-0.112	1.93	0.701	-0.183	-0.341
GGCUGCUGGAUUGAAUUAGCUGCA [hsa-mir-1286]	0.506	-0.74	1.15	0.133	0.023
GGCUGGACAGGAGAGGGCUCACCCAGG [hsa-mir-6775]	1.78	0.487	1.77	0.591	1.16
GGCUGGCCCCCUGCUUCGUGCCCAUCC [hsa-mir-937]	0.83	-1.14	1.53	0.127	0.211
GGCUGGGCAGGCGGAAAGAGGUCUGAACUGCCUCUGCC [hsa-mir-6791]	-0.0487	0.578	0.358	-0.0685	-0.139
GGCUGGGGUCACUGACUCUGCUUCCCCUGCC [hsa-mir-6799]	-0.0831	-0.448	0.62	-0.0439	-0.14
GGCUGUGAGCUCUAGCAAUGCCC [hsa-mir-146b]	0.59	-0.867	1.31	0.158	0.251
GGCUGUGGCCUAGGGCAAGCCACAAAGCC [hsa-mir-4642]	0.183	0.507	0.939	0.245	0.0577
GGCUUUGGCAUCUAUGAAAGCC [hsa-mir-4755]	0.507	0.33	-0.233	-0.302	0.45
GGGAACUGGUGAGUUGUACAUAGAAAUGCUUUCUAACUCC [hsa-mir-4499]	0.112	0.204	0.548	-0.00162	-0.123
GGGAAGGAGAAGGGACGCUUCCC [hsa-mir-3127]	0.268	2.68	0.895	0.167	0.262
GGGACACAUUUGAGCCAAAUGUCCC [hsa-mir-610]	-0.525	-0.286	-0.132	-0.331	-0.35
GGGACAUUGCGGAGAGGGUCUCACAUUGUCCC [hsa-mir-4646]	0.925	0.248	0.488	0.999	0.894
GGGACGUGUGAUGCUGUGCUUCCU [hsa-mir-3689f]	-0.185	-0.338	0.502	-0.0333	-0.469
GGGAGAGGGGCCCAGCUGACCCUCCUGUC [hsa-mir-6879]	1.68	-0.867	1.89	0.744	0.755
GGGAGCAUGAACAAUGUUUCUCACUCCC [hsa-mir-3162]	0.299	1.01	1.13	-0.49	0.186
GGGAGCGGCCCUCACAUUGAUGGCUCCU [hsa-mir-6727]	0.313	1.42	0.257	-0.052	0.264
GGGAGGUAAGAAGUCUCUGACUCCU [hsa-mir-5193]	-0.44	0.481	-0.358	-0.261	-0.307
